Source: patent US20090035317A1, “Peptides binding to vascular endothelial growth factor” (priority 2007, published 2009)
One block for each molecule: values may come before it. Bridge positions count the residues as written; N and C are the ends. Ends that are not written are not given here.

Key:
biotinylated VEGF = test: First order dissociation rate constants (koff) of cell-surface displayed peptides, flow cytometry; format: binding; settings: peptide displayed on bacterial cell surface; for RT koff: room temperature
Experimental: (§1) Cells displaying VEGF-binding peptides were first incubated with biotinylated VEGF and allowed to equilibrate at 4° C. After centrifugation, excess VEGF was removed. The cells were then resuspended in buffer, such that the concentration of cells was diluted 1:10, as compared to the VEGF-labeling step. Cells were allowed to incubate in buffer at room temperature or 37° C. for times varying from 5 minutes to 21 hours to allow dissociation of VEGF from the cell surface. After the appropriate amount of time, the cells were placed on ice to stop the dissociation, and streptavidin-phycoerythrin (SAPE) was added for fluorescence labeling. After centrifugation, excess SAPE was removed, and cellular fluorescence was measured by flow cytometry. Fluorescence data as a function of dissociation time was used to determine koff.

VEGF [1] = test: Equilibrium binding of displayed clones with VEGF at 1 nM and 10 nM; settings: displayed on cell surface
Target sequence in this assay (P15692 207-320 limits assumed): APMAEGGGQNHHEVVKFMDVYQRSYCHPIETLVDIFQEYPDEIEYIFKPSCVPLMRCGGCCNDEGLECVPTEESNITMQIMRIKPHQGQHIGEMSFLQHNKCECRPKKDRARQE

VEGF [2] = test: Clone characterization: off-rate from VEGF at room temperature (Example 1); format: binding; settings: 10 nM VEGF labeling, FIG. 3, FIG. 4
Experimental: Initial measurements of off-rate were made for each clone in order to narrow down the search for the best binding peptide. Each clone was labeled with 10-nM VEGF. Excess VEGF was washed away, and the protein was allowed to dissociate for 15 and 30 minutes at room temperature. SAPE was added, and secondary labeling was performed on ice. Excel's Regression function was used to calculate koff for each peptide using three time points (0, 15, and 30 minutes) and the standard error for the regression.
Each clone was incubated with 10 nM VEGF and allowed to come to equilibrium. The excess VEGF was washed away, and the cells were separated into 4 aliquots and diluted 1/10 in room temperature PBS. SAPE was added to the appropriate aliquot after 5, 10, 15, and 30 minutes for secondary labeling on ice. The mean fluorescence at these time points was used to determine koff. In most cases, the t=30 minute point could not be incorporated into the regression.
Target sequence in this assay (P15692 207-315 limits assumed): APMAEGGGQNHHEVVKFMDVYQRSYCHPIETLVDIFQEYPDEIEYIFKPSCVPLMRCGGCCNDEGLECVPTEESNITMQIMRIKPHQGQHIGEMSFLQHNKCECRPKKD

VEGF [3] = test: Specificity: retention of VEGF binding fluorescence in BSA and serum; settings: 10-nM VEGF; serum dilutions; FIG. 5
Experimental: In addition, measurements of specificity were performed for the four peptides whose off-rate could be calculated. Each clone was incubated with 10-nM VEGF in varying dilutions of BSA and serum followed by secondary labeling with SAPE at the same BSA/serum concentration. It was assumed that a specific peptide would retain more fluorescence upon serum addition than a non-specific peptide. The serum was first prepared by incubation with cells overexpressing the CPXopt template, spinning down the cell pellet and any bacteria-specific proteins bound to them, and removing the supernatant for incubation with the selected clones. Adding BSA up to physiological conditions decreased the mean fluorescence of each clone by an average of ˜40%, seemingly indicating some degree of specificity. […] FIG. 5 gives the fluorescence remaining after serum addition relative to initial fluorescence (at a serum dilution of 1/100), which was taken to be a measure of the specificity of the interaction between the peptide and VEGF. […] Therefore, the change in fluorescence of a gated population of positive binding cells was used to determine the specificity metric. In some cases with undiluted serum, a significant fraction of cells (>˜1%) still fell into this positive, and the fluorescence of this small fraction of cells was used to calculate the specificity. […]
Target sequence in this assay (P15692 207-320 limits assumed): as the sequence (P15692 207-320 limits assumed) above

VEGF [4] = target: T1, VEGF (Homo sapiens, UniProt P15692); settings: Fairbrother et al. (1998); read-out: reported equilibrium dissociation constant (KD); cited from earlier work
T1 sequence (P15692 214-315 limits assumed): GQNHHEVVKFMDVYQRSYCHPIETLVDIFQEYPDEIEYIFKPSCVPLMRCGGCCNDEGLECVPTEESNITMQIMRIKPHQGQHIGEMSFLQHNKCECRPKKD

[5] = tested on: biotinylated recombinant murine VEGF (rmVEGF); test: Murine cross-reactivity, flow cytometry; format: binding; settings: rmVEGF at 25 and 250 nM
Experimental: Cells expressing VEGF-binding peptides were incubated with biotinylated recombinant murine VEGF (rmVEGF). Fluorescence labeling was performed with SAPE as previously described. The first seven clones listed in Table 5 as well as v114 were assayed for cross-reactivity with rmVEGF. All of the ligands analyzed bound rmVEGF at concentrations of 25 and 250 nM, as measured by flow cytometry.

[6] = target: T2, vascular endothelial growth factor (VEGF) (UniProt P15692-4 27-191, limits assumed, biotinylated); test: comparison of 37° C. koff values of Table 5, flow cytometry on displayed peptides
T2 construct: Soluble biotinylated VEGF used to label cells that display the peptides; also called biotinylated VEGF
Experimental: as §1

[7] = target: T2, vascular endothelial growth factor …; test: flow cytometry, peptide displayed on bacterial cell surface, dissociation of biotinylated VEGF at room temperature
Experimental: as §1

[8] = target: T2, vascular endothelial growth factor …; test: apparent equilibrium KD measured from the bacterial cell surface, flow cytometry
[9] = target: T2, vascular endothelial growth factor …; test: flow cytometry, peptide displayed on bacterial cell surface, dissociation of biotinylated VEGF at 37° C.
Experimental: as §1

[10] = target: T2, vascular endothelial growth factor …; test: comparison of room temperature koff values of Table 5, flow cytometry on displayed peptides
Experimental: as §1

[11] = target: T2, vascular endothelial growth factor …; test: flow cytometry competition; soluble v114 premixed with biotinylated VEGF; competitor: displayed L3.F5A.01, compared with displayed L2.F4.04
Experimental: Biotinylated VEGF was first mixed with various concentrations of soluble v114 peptide (Anaspec); the ratio of soluble peptide to VEGF ranged from ˜2:1 to 5000:1. Cells expressing VEGF binding peptides were then incubated with this VEGF/peptide mixture and allowed to equilibrate at 4° C. After centrifugation, unbound protein/peptide was removed, and the cells were resuspended in SAPE for fluorescence labeling.

T2 sequence (P15692 other isoform, or with tags, fused parts or gaps limits assumed): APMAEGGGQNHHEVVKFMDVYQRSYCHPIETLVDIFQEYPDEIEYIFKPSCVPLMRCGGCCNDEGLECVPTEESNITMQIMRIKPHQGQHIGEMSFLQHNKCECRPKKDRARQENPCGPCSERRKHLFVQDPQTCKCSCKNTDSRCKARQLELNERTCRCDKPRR
biotinylated VEGF, sequence (P15692 207-320 limits assumed): as the sequence (P15692 207-320 limits assumed) above
biotinylated recombinant murine VEGF (rmVEGF), sequence (Q00731 205-317 limits assumed): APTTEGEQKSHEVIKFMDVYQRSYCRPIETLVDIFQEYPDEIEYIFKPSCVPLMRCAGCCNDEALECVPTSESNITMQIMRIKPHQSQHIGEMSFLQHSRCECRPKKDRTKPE

Molecule: AKRSSYSMWGAMPGGGSGGGNFGYGKWEWDYGKWLEKV [Clone L3.F5A.03, AKRSSYSMWGAMP-GGGSGGG-NFGYGKWEWDYGKWLEKV]
37° C. koff (biotinylated VEGF): 0.0006 s⁻¹
RT koff (biotinylated VEGF): 4.28e-05 s⁻¹

fluorescence labeling when bound to VEGF (VEGF [1]): bright fluorescence signals
Molecule: CPVQTMWDWECMRAFIEG [Clone L2.F3B.08]
dissociation rate (in words) (VEGF [2]): good dissociation kinetics
37° C. koff (biotinylated VEGF): 0.0042 s⁻¹
RT koff (biotinylated VEGF): 0.0072 s⁻¹
effect of serum addition on VEGF binding fluorescence (VEGF [3]): loses more fluorescence upon serum addition than does L2.F4.04

fluorescence labeling when bound to VEGF (VEGF [1]): better labeling
Molecule: GPGWWLWDWDNLGARRGGL (VEGF-binding peptide) [Clone L2.F3A.10]

Molecule: HQQLQYWDWIEAVVHNG (VEGF-binding peptide) [Clone L2.F3A.05]
dissociation rate (in words) (VEGF [2]): slow dissociation rates

fluorescence labeling when bound to VEGF (VEGF [1]): bright fluorescence signals
Molecule: NFGYGKWEWDYGKWLEKVG [Clone L2.F4.04]
dissociation rate (in words) (VEGF [2]): slow dissociation rates
37° C. koff (biotinylated VEGF): 0.0013 s⁻¹
RT koff (biotinylated VEGF): 0.0013 s⁻¹

Molecule: SKLKTLLWQQGGGSGGGNFGYGKWEWDYGKWLEKV [Clone L3.F6.02, SKLKTLLWQQ-GGGSGGG-NFGYGKWEWDYGKWLEKV]
37° C. koff (biotinylated VEGF): 0.0014 s⁻¹
RT koff (biotinylated VEGF): 0.000291 s⁻¹

Molecule: SSKCGRWGETPCLAEGGGSGGGNFGYGKWEWDYGKWLEKVG [Clone L3.F5A.01, SSKCGRWGETPCLAE-GGGSGGG-NFGYGKWEWDYGKWLEKVG]
37° C. koff (biotinylated VEGF): 0.00012 s⁻¹
RT koff (biotinylated VEGF): 2e-05 s⁻¹

Molecule: SYVLKEWSVPSWGKPGGGSGGGNFGYGKWEWDYGKWLEKV [Clone L3.F6.01, SYVLKEWSVPSWGKP-GGGSGGG-NFGYGKWEWDYGKWLEKV]
37° C. koff (biotinylated VEGF): 0.00025 s⁻¹
RT koff (biotinylated VEGF): 0.00011 s⁻¹

binding of rmVEGF [5]: bound rmVEGF
Molecule: VEPNCDIHVMWEWECFERL [v114, soluble peptide from Anaspec; positive control]
Kd (VEGF [4]): 110 nM

Molecule: VTSRYEMREDGSWKKGGGSGGGNFGYGKWEWDYGKWLEKVG [Clone L3.F5A.02, VTSRYEMREDGSWKK-GGGSGGG-NFGYGKWEWDYGKWLEKVG]
37° C. koff (biotinylated VEGF): 0.00074 s⁻¹

Molecule: WKELRFWDWEGGNHKKCVT (VEGF-binding peptide) [Clone L2.F3B.12]
dissociation rate (in words) (VEGF [2]): slow dissociation rates

fold improvement (slower dissociation) against the monodendate parent peptide L2.F4.04 [6]: ≤ 12 fold
koff [7]: 2e-05 s⁻¹
Kd [8]: 2.1 nM
koff [9]: 0.00012 s⁻¹
fold improvement (slower dissociation) against the monodendate parent peptide L2.F4.04 [10]: 4 to 65 fold
B1: L3.F5A.01 (peptide)
peptide: SSKCGRWGETPCLAEGGGSGGGNFGYGKWEWDYGKWLEKVG
notes: also called bidentate peptide L3.F5A.01; not shown: CPXopt bacterial display scaffold (carrier)

Kd [8]: 2.6 nM
koff [9]: 0.00074 s⁻¹
B2: L3.F5A.02 (peptide)
peptide: VTSRYEMREDGSWKKGGGSGGGNFGYGKWEWDYGKWLEKVG
notes: not shown: CPXopt bacterial display scaffold (carrier)

koff [7]: 0.000291 s⁻¹
Kd [8]: 5 nM
koff [9]: 0.0014 s⁻¹
fold improvement (slower dissociation) against the monodendate parent peptide L2.F4.04 [10]: 4 to 65 fold
B3: L3.F6.02 (peptide)
peptide: SKLKTLLWQQGGGSGGGNFGYGKWEWDYGKWLEKV
modifications: Displayed on the E. coli surface as a fusion to CPXopt; the letters do not carry the scaffold.
notes: Peptide 2 is printed without the final G of L2.F4.04; not shown: CPXopt bacterial display scaffold that carried the peptide on the cell surface

fold increase in the concentration of v114 required to block 50% of VEGF binding, bidentate peptide against parent peptide [11]: ≥ 5 fold
Molecule: VEPNCDIHVMWEWECFERL (also called Genentech v114 peptide) [soluble v114 peptide (Anaspec)]

koff [7]: 0.0013 s⁻¹
Kd [8]: 6.1 nM
koff [9]: 0.0013 s⁻¹
B4: L2.F4.04 (peptide)
peptide: NFGYGKWEWDYGKWLEKVG
notes: as for B2

koff [7]: 0.00011 s⁻¹
Kd [8]: 3.5 nM
koff [9]: 0.00025 s⁻¹
B5: L3.F6.01 (peptide)
peptide: SYVLKEWSVPSWGKPGGGSGGGNFGYGKWEWDYGKWLEKV
modifications: Displayed on the E. coli surface as a fusion to CPXopt; the letters do not carry the scaffold.
notes: as for B3

koff [7]: 0.0072 s⁻¹
Kd [8]: 17.8 nM
koff [9]: 0.0042 s⁻¹
B6: L2.F3B.08 (peptide)
peptide: CPVQTMWDWECMRAFIEG
modifications: disulfide 1-11 (inferred)
notes: as for B2

koff [7]: 4.28e-05 s⁻¹
Kd [8]: 3.7 nM
koff [9]: 0.0006 s⁻¹
B7: L3.F5A.03 (peptide)
peptide: AKRSSYSMWGAMPGGGSGGGNFGYGKWEWDYGKWLEKV
modifications: Displayed on the E. coli surface as a fusion to CPXopt; the letters do not carry the scaffold.
notes: as for B3
